assay: yeast display, Sf9 membrane polyspecificity reagent, FACS + sequencing; frameworks hold sequencing errors
Outline: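 Genes from sorted yeast were amplified by colony PCR, read by MiSeq 2 × 250 sequencing and filtered on CDR length. These cells carried a synthetic nanobody library in Saccharomyces cerevisiae BJ5465 and were sorted by FACS into low and high (top ~1%) gates on anti-HA and streptavidin fluorescence. Polyreactivity is labelled according to the gate of origin.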

Sequence | polyreactivity (PSR sort gate)
QVQLVESDGGLVQAGGSLRLSCAASGSTFTWNAMGWYRQAPGKERELVAAISGDGGSTYYADSVKGRFTISRDNAKNTVYLQMNSLKPEDTAVYYCAASSAHIYSYRYNYWGQGTQVTVSS | low polyreactivity
QVQLVESGAGIVQAGGSHRLSCAASGFIFFGYAAMEWYRQAPGKERELVAAISWSGGSTYYADSVKGRFTISRDHAKYTVYLQMNSLKPEDTAVYYCNAVYLKLYPWLDYWGQVTQVTVSS | low polyreactivity
QVQLVESGAGIVQAGGSLRLSCAASGLTFKVYAMGWYRQAPGKERELVAAISWSGGSTYYADSVKGRFTISRDNAKNTGYLQRNSLKPEDTAVYYCAVEPSYYVVFFQYDYWGQGTQVTVSS | low polyreactivity
QVQLVESGAGIVQAGGSLRLSCAASGSIFRVYAMGWYRQAPWKERELVAAISRTGGSTYYADSVKGRFTISRDNAKNTVYLPMNSLQPEDTAVDYCAARQRYVGYYYWGQGTQVTVSS | high polyreactivity
QVQLVESGAGIVQAGGSLRLSCAASGSIFYYNAMGVYRQAPGKERELVAAITSADSTNYADSVKGRFTISRDNAKNTVYLQMNSLKPEDTAVYFCAADFLAALTYYRTYDYWGQGTQVTVSS | low polyreactivity
QVQLVESGAGIVQAGGSLRLTCAASGSTFVIYDMGWSRQAPGKERELVAAISYSGGSTYYADSVKGRFTISRDNAKNTVYLQMNSLKPEDTAVYYCAAEVPYYYPGFYSYYDDSDYWGQGTQVTVSS | low polyreactivity
QVQLVESGAGLFQAGGRLRISCAPSGFIFVFNAMGWYRQAPGKERELVAAINRGDITNYADSVKGRFTISRDNAKNTVYLQMHSLSPVDTAVYFCAADGEDSLWTGYDYDYWGQGTQVTVST | low polyreactivity
QVQLVESGAGLVHAGGSLRLCCAASGRIFNGYSMGWYRQAPGKERELVAGISYSGGSTYYADSVKGRFTISRDNAKNTVYLQMNSQKPEETAVYYCAKRPYYLGNRYRFDYWGQGTQVSVSS | high polyreactivity
QVQLVESGAGLVHAGGSLRLSCAAYGRTFLAYAKGWYRQAHGKERELVAAISKSGGRTYYADSVKGRFTISRDYAKHTVYLQMNSLKPEDTAVYYCAADKQAYVTDDYWGQGTQVTVSS | high polyreactivity
QVQLVESGAGLVHAGGSLRLSCASSGSIFNVYAMGWYRQAPGKERELVAAIRSSGGSTYYADSVKGRFTISRDKAKNTVNLQMNSLKPEDTAVYYCAAVTRAIRTWRMYYWGQGTQVTVSS | high polyreactivity
QVQLVESGAGLVQAGGRLRISCAASGSTFDGNTMGWYRQAPGKERELVAAISGSGGSTYYADSVKGRFTISRDNAKNTVYLQMNSLKPEDTAVYYCAADFRVGRYDYWGQGTQVTVSS | high polyreactivity
QVQLVESGAGLVQAGGSLGLSCAASGSNFIYNAMGLYRQAPGKERELVAAITDRSTKYADSVKGRFTISRDNAKYSGYVQMNSLKTEDTAVYYSNAYVWRWRYDSWGQVTQVTVSS | low polyreactivity
QVQLVESGAGLVQAGGSLRFSCAASGFIFVDNTMGWSSQAPGKEMELVAAISYSAGSTYYADSVKGRFTISRDNAMNTVYLQMNCLKPEDTAVYDCAAQHSWVTSYLYSYDYWGQGTQVTVSS | low polyreactivity
QVQLVESGAGLVQAGGSLRISCAASGSTFDGNDIGWYRQAPGKERELVAAITIGGGSTYYADSVKGRFTISRDNAKNTVYLQMNSLKPEDTAVYYCAKDDHTGVHTYPGDYWGQGTQVTVSS | low polyreactivity
QVQLVESGAGLVQAGGSLRLCCAASGRTYRLYAMGWYRQAPGKERELVAAITRGGRTNYADSVKGRFTISRDNAINTVYLQMYSLKPEDIAVYYCAARYVERHTDYYYWGQGTQVTVSS | low polyreactivity
QVQLVESGAGLVQAGGSLRLCCAASGSTFTKNAMGLYRQAPGKERELVAAISWRDGSTYYADSVKGRFTISRDNAKNTVYLQMNSLKPEDTAVYYCNAVRRSFGKYPGLLDYDYWGQGTQVTVSS | high polyreactivity
QVQLVESGAGLVQAGGSLRLICAASGFIFADYAMGWYRQAPGKERELVAAITSSGSRTYYADSVKGRFTISRDNAKNTVYLQMNSLKPEDTAVYYCAVRGVYYYHFAFDYWGQGTQVTVSS | high polyreactivity
QVQLVESGAGLVQAGGSLRLSCAASGFIFFYYAMGWYRQAPGKERELVAAISASGGSTYYADSVKGRFTISRDNAKNTVYLQLNSLKPEDTAVYYCAARYRKAESARWEYDYWGQGTQVTVSS | high polyreactivity
QVQLVESGAGLVQAGGSLRLSCAASGFIFNRYAMGWYRQAPGKERELVAAIRGSGGSTYADSVKGRFTISRDNAKNTVYLQMNSLKPEDTAVYYCNKERPRRNGQVARYDYWGQGTQVTVSS | low polyreactivity
QVQLVESGAGLVQAGGSLRLSCAASGFIFRGNTMGWYRQAPGKERELVASITRGGGRTYYADSVKGRFTISRDNAKNTVYLQMNSLKPEDTAVYYCAARTRSDNSYHGGEYWGQGTQVTVSS | high polyreactivity
QVQLVESGAGLVQAGGSLRLSCAASGIFVRYGMGWYRQAPGKERELVAAISYGGGSTYYADSVKGRFTISRDNAKITVYLQMNSLKPEDTAVYYCAASYANRYKYDEYDYWGQGTQVTVSS | high polyreactivity
QVQLVESGAGLVQAGGSLRLSCAASGITFSKYAMGWYRVARGKDRELVAAISSTASTNYADSVKGRFTISRDNAKNTVYLQMNSQKPDDTAVYYCNDVLFFQLFWTYDDYWGQGSQVTVSS | low polyreactivity

Sequence | polyreactivity (PSR sort gate)
QVQLVESGAGLVQAGGSLRLSCAASGLTFFYYAMGWYRQAPGKERELVAAIDNDGGTYYADSVKGRFTISRDNAKNTVYLLMNSLKPEDTAVYYCNADYQTVDDPYGYDYWGQGTQVTVSS | low polyreactivity
QVQLVESGAGLVQAGGSLRLSCAASGRIFADYAMGWYRQAPGKERELVADIRQSGGRTYYADSVKGRFTISRDNAKNTVYLQMNSLKPEDTAVYYCATDYGSWGDYSGKYDYWGQGTQVTVSS | low polyreactivity
QVQLVESGAGLVQAGGSLRLSCAASGRIFAGYAMGWYRQAPGKEMELVATISSGGSTYYADSVKGRFTISRYNAKNTVYLQMNSLKPEVTAVYYCAADNWVNDGDYCGQGTQVTVSS | low polyreactivity
QVQLVESGAGLVQAGGSLRLSCAASGRIFHKYAMGWYRQAPGKERELVAAIDWSGGSTYYADSVKGRFTISRDNAKNTVYLQMNSLKPEDTAVYYCAAYWYYEDGQCEARLYGYDYWGQGTQVTVSS | low polyreactivity
QVQLVESGAGLVQAGGSLRLSCAASGRIFLGNAMGWYRQAPGKERELVAAISRSGVTRYYADSVKGRFTISRYNGKNTVYLQMNSLKPEDTAVYYCAVERYDRFDHYYWVQGTQVTVSS | low polyreactivity
QVQLVESGAGLVQAGGSLRLSCAASGRIFYKYVMGWYRQAPGKERELVATITSGGSTYYADSVKGRFTISRDNAKNTVYLQMNSLKPEDTAVYYCATKQSRTRYDRYGYWGQGTQVNVSS | high polyreactivity
QVQLVESGAGLVQAGGSLRLSCAASGRTFFRYVMGWYRQAPGKERELVAAIRSGGSTNYADSVKGRFTISLDNAKNTVYLQMNSLKPEDTAVYYCAARKWHSAYDYWVQGTQVTVSS | high polyreactivity
QVQLVESGAGLVQAGGSLRLSCAASGRTFRINTMGWSIQAPGKERELVATITGSGGSTYYADSVKGRFTISRDNAKNTVYLQMNSLKPEDTAVYYCAAVGDQNEYDYWGQGTQVTVSS | low polyreactivity
QVQLVESGAGLVQAGGSLRLSCAASGRTFSAYAMGWYRQAPGKERELVAAITLSVGSTYYADSVKGRFTISRDNAKTTVYLQMNSLKPEDTAVYYCNKYKKGEGGITIVRFDYWGQGTQVTVSS | low polyreactivity
QVQLVESGAGLVQAGGSLRLSCAASGSIFDYYAMGLYRQAPGKERELVAVITRGGSTYYADSVKGRFTISRDNAKNTDSLQMNSLKPEDTAVYYCNASRGYKSRYEYWGQGTQVTVSS | high polyreactivity
QVQLVESGAGLVQAGGSLRLSCAASGSIFEYYAMGWYRQAPGKERELVAAISSGGPTYYADSVKGRFTISRDNAKNTVYLQMNSLKPEDTAVYYCNAALRYPDYDYWGQGTQVTVSS | low polyreactivity
QVQLVESGAGLVQAGGSLRLSCAASGSIFRKYGMGLYRQAPGKDRELVATITSSGGSTYYADSVKGRFRISRDNAKNTVYVQMNSLIPEDTAVYYCAARWTYSFHWFSRYDYWGPGTQVTVSS | high polyreactivity
QVQLVESGAGLVQAGGSLRLSCAASGSIFYYYAMGWYRQAPGKEREFVAAIRESGGSTYYADSVKGRFTISRDNAKNTVYLQMNSLKPEDTAVYYCAVRRPRRNYNYPYDYWGLGTQVTVSS | low polyreactivity
QVQLVESGAGLVQAGGSLRLSCAASGSTFRSNAMGWYRPAPGKEREFVASITSRGGPTYYADSVKGRFTISRDNAKNTVYLQMKSLKPEDTAVYYCASARSYLTYFYHYDYWGQGTQVTVSS | low polyreactivity
QVQLVESGAGLVQAGGSLRLSCAASGSTLVGNTMGWYRQSPGKERELVAAITGVGSTNYADSVKGRFTISRDNAKNTVYLQMNSLKPEDTAVYYCAVDGRSVQARWPRFDYWGQGTQVTVSS | low polyreactivity
QVQLVESGAGLVQAGGSLRLSCAASGYAMGWYRQAPGKERELVAAITSNGGRTYYADSVKGRFTISRDYAKNTVYLEMNSLKPEDTAVYYCATRTGPHYKTRWTYDQGYWGQGTQVTVSS | low polyreactivity
QVQLVESGAGLVQAGGSLRLSCAASGYIFGQNAMGWYRQAPGKERELVASISDGGSTYYADSVKGRFTISRDNAKNTVYLQMNSLKPEDTAVYYCAAGQDWGEKALGAWLFDYWGHGTQVTVSS | low polyreactivity
QVQLVESGAGLVQAGGSLRLSCAASVSIFDIYAMGWYRQAPGKERELVADISWSGGSTYYADSVKGRFTISRDNAKNSVYLQMNSLKPEDTAVFDCAAELYGFTVDPGDYWGQGTQVTVSS | low polyreactivity
QVQLVESGAGLVQAGGSLRLSSAASGSIFEPNAMGWYRQAPGKERELVAAITSGGTTYADSVKGRFTISRDNAKNSVYFQMNSLKPEDSAVYYCAAYYIFVYYYPFDYWGQGTQVTVSS | low polyreactivity
QVQLVESGAGLVQAGGSLRLSWAASGSNYDIYAMGWYRQAPGKERELVAAITGSGGSTNYADSVKGRFTISRDNAKNTVYVQLNSLKPEDTAVYYCAAAGFDYPSDTYGYWGQGTQVTVSS | low polyreactivity
QVQLVESGAGLVQAGGSLSLSCAASGRIFDRYVMGWYRQAPGKERELVAAISDGGSTYYADSVKGRFTISRDNAKNTVYLQMNSLKPEDTAVYYCAAVRYNSRVSTTPSEMYYWGQGTQVTVSS | low polyreactivity
